The results in this text go back to paper PMC8113479, “Following replicative DNA synthesis by time-resolved X-ray crystallography”.

The target in data set [1] is T1, Bst DNA polymerase I large fragment (Geobacillus stearothermophilus, UniProt E1C9K5 3-580). The experiment in a line: X-ray crystallography; dATP soak, 120 min, product complex; Co-crystals; P/T duplex annealed in Bst buffer (50 mM Tris-Cl pH 7.5, 150 mM NaCl, 1 mM EDTA, 10 mM BME) with 20 mM MgCl2; crystallization and soak conditions not in the material. To be noted: protein: recombinant; tags: tagless; template 5' overhang 4 nt and 3' overhang 1 nt; 11 bp.

Data set [2] deals with T1, Bst DNA polymerase I large fragment. As to the kind of experiment: X-ray crystallography; dATP and dCTP soak, 48 h, product binary complex; Co-crystals; P/T duplex annealed in Bst buffer (50 mM Tris-Cl pH 7.5, 150 mM NaCl, 1 mM EDTA, 10 mM BME) with 20 mM MgCl2; crystallization and soak conditions not in the material. Particulars: protein: recombinant; tags: tagless; template 5' overhang 3 nt and 3' overhang 1 nt; 12 bp.

The target is the same in data set [3]. The experiment in a line: X-ray crystallography; 0 min, before dATP soak; Co-crystals; P/T duplex annealed in Bst buffer (50 mM Tris-Cl pH 7.5, 150 mM NaCl, 1 mM EDTA, 10 mM BME) with 20 mM MgCl2; crystallization and soak conditions not in the material. Particulars: protein: recombinant; tags: tagless; template 5' overhang 5 nt (GACGT) and 3' overhang 1 nt (A); 10 bp.

B1: P+1/T duplex (primer extended by dA in crystallo) (dsDNA)
DNA 1: GCGATCACGTA
DNA 2: GACGTACGTGATCGCA
As to B1, in data set [1], the binding result is on record as “binds”.

B2: P+2/T duplex (primer extended by dA and dC in crystallo) (dsDNA)
DNA 1: GCGATCACGTAC
DNA 2: GACGTACGTGATCGCA
Turning to B2, in data set [2], the binding result is on record as “binds”.

B3: P/T duplex (starting primer-template) (dsDNA)
DNA 1: GCGATCACGT
DNA 2: GACGTACGTGATCGCA
Consider B3, for which, in data set [3], the binding result is on record as “binds”.
